{"source": "patent EP4570823A1", "target": "Aβ oligomers, P05067", "sequence (P05067 672-713)": "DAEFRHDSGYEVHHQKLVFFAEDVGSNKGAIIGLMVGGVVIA", "experiment": "SPR (Biacore), 3F fixed on CM5 chip, Aβ oligomers in flow", "details": "remark: other sources report otherwise", "data": [{"binder": "antibody 3F (scFv) scFv: MAEVQLLESGGGLVQPGGSLRLSCAASGFTFSSYAMSWVRQAPGKGLEWVSGISNLGLTTGYADSVKGRFTISRDNSKNTLYLQMNSLRAEDTAVYYCAKTTSRFDYWGQGTLVTVSSGGGGSGGGGSGGGGSTDIQMTQSPSSLSASVGDRVTITCRASQSISSYLNWYQQKPGKAPKLLIYKASYLQSGVPSRFSGSGSGTDFTLTISSLQPEDFATYYCQNSAVRPVTFGQGTKVEIKR", "values": [{"measurement": "Kd", "value": 0.847, "unit": "nM"}]}]}
